For this assay, the target named is MvaT F36D/M44D (P. aeruginosa) (UniProt Q9HW86). Kind of assay: ITC. In general terms: In ITC the heat of successive injections is recorded.

Broadly, the Kd is the free concentration of one partner at which half of the binding sites on the other are occupied at equilibrium, for simple one-to-one binding. A low value points to tighter binding. Usually stoichiometry N stands for a count of units in the complex or per binding partner. The substance gp4 K42E/K45E (natural protein) registered a Kd of 1360 nM and a stoichiometry N of 0.52.
The corresponding values for “gp4 of Pseudomonas phage LUZ24 (natural protein)” are 170 nM and 0.56.

Values taken from paper doi:10.1101/2021.03.03.433722.
